# Experimental data from patent US4446316A, “Dextran derivative of fibrinolysin” (Vsesojuzny Kardiologichesky Nauchny Tsentr, priority 1980, dated 1984).
# “Also recorded” adds a separate entry of the source.
# B1: Fibrinolysin derivative of the invention: fibrinolysin covalently bonded to dextran dialdehyde (molecular mass 20,000 to 110,000), reduced with sodium borohydride (conjugate, UniProt P00747 20-580; P00747 581-810, looked up)
# Plasmin heavy chain A: EPLDDYVNTQGASLFSVTKKQLGAGSIEECAAKCEEDEEFTCRAFQYHSKEQQCVIMAENRKSSIIIRMRDVVLFEKKVYLSECKTGNGKNYRGTMSKTKNGITCQKWSSTSPHRPRFSPATHPSEGLEENYCRNPDNDPQGPWCYTTDPEKRYDYCDILECEEECMHCSGENYDGKISKTMSGLECQAWDSQSPHAHGYIPSKFPNKNLKKNYCRNPDRELRPWCFTTDPNKRWELCDIPRCTTPPPSSGPTYQCLKGTGENYRGNVAVTVSGHTCQHWSAQTPHTHNRTPENFPCKNLDENYCRNPDGKRAPWCHTTNSQVRWEYCKIPSCDSSPVSTEQLAPTAPPELTPVVQDCYHGDGQSYRGTSSTTTTGKKCQSWSSMTPHRHQKTPENYPNAGLTMNYCRNPDADKGPWCFTTDPSVRWEYCNLKKCSGTEASVVAPPPVVLLPDVETPSEEDCMFGNGKGYRGKRATTVTGTPCQDWAAQEPHRHSIFTPETNPRAGLEKNYCRNPDGDVGGPWCYTTNPRKLYDYCDVPQCAAPSFDCGKPQVEPKKCPGR
# Plasmin light chain B: VVGGCVAHPHSWPWQVSLRTRFGMHFCGGTLISPEWVLTAAHCLEKSPRPSSYKVILGAHQEVNLEPHVQEIEVSRLFLEPTRKDIALLKLSSPAVITDKVIPACLPSPNYVVADRTECFITGWGETQGTFGAGLLKEAQLPVIENKVCNRYEFLNGRVQSTELCAGHLAGGTDSCQGDSGGPLVCFEKDKYILQGVTSWGLGCARPNKPGVYVRVSRFVTWIEGVMRNN
# modifications: Plasmin dextran dialdehyde conjugate, borohydride reduced
# notes: fibrinolysin covalently bonded to dextran dialdehyde (molecular mass 20,000 to 110,000), reduced with sodium borohydride
# B2: 2: polysaccharide derivative of fibrinolysin from oxidized polyglucin with the molecular mass of 110,000 and the oxidation degree of 20±2% (conjugate, UniProt P00747 20-580; P00747 581-810, looked up)
# Plasmin heavy chain A: B1 Plasmin heavy chain A
# Plasmin light chain B: B1 Plasmin light chain B
# modifications: plasmin conjugated to oxidized polyglucin
# B3: Fibrinolysin: native enzyme; thrombolytic preparation administered intravenously (protein, UniProt P00747 20-580; P00747 581-810, looked up)
# Plasmin heavy chain A: B1 Plasmin heavy chain A
# Plasmin light chain B: B1 Plasmin light chain B
# modifications: Plasmin
# notes: native enzyme; thrombolytic preparation administered intravenously
# B4: 1: polysaccharide derivative of fibrinolysin from oxidized polyglucin with the molecular mass of 20,000, reduced with sodium borohydride (conjugate, UniProt P00747 20-580; P00747 581-810, looked up)
# Plasmin heavy chain A: B1 Plasmin heavy chain A
# Plasmin light chain B: B1 Plasmin light chain B
# modifications: plasmin conjugated to oxidized polyglucin, borohydride-reduced
# notes: polysaccharide derivative of fibrinolysin from oxidized polyglucin with the molecular mass of 20,000, reduced with sodium borohydride
# Tests used:
# [1] = Solubility and hygroscopicity of the preparation; assay type: physicochemical; details: for Solubility in 0.9% isotonic solution of sodium chloride: 0.9% sodium chloride; for Hygroscopicity: lyophilized powder
# experimental thrombosis = experiment: Duration of fibrinolytic effect and effective dose in experimental thrombosis; assay type: in vivo, rabbits, dogs; details: for Minimal effective (therapeutical) dose: single intravenous jet-like infusion
# Description: (§1) The study of the specific (thrombolytic) effect of the polysaccharide fibrinolysin derivative according to the present invention has been studied on models of thromboses of a rabbit's jugular vein and a dog's femoral vein or artery. Thrombi of 1 to 2.5 cm size were formed in the above-mentioned animals which fully obliterated the cross-section of a blood vessel. The administration of the test preparation at the background of heparin was started one hour after the thrombus formation.
# (§2) On the basis of an expected prolonged fibrinolytic effect of the preparation according to the present invention, a test dose of the preparation ranging from 400 to 4,000 units per kg of the bodyweight is dissolved in a physiological solution, 20-30 ml for rabbits and 50-100 ml for dogs, and injected by means of a syringe in a jet-like manner intravenously over 20 minutes, not following the instruction on the use of fibrinolysin (intravenously by the dropwise method at a rate of 10-12 drops per minute).
# (§3) The dynamics of the thrombus formation and lysis was observed visually and by palpation during 6 hours of the experiment, after one, two and three days. The angiography and fluorometry were carried out prior to the beginning of the treatment and one day after the administration of the preparation.
# Rats = experiment: Toxicity upon intravenous injection in rats; assay type: in vivo; details: i.v.
# Description: (§4) The toxicity of the fibrinolysin derivative according to the present invention was studied on white mice, rats, rabbits and dogs.
# (§5) Toxicity of the fibrinolysin derivative of the invention
# (§6) for animals of different species upon intravenous injection
# Rabbits = experiment: Toxicity upon intravenous injection in rabbits; assay type: in vivo; details: i.v.
# Description: as §4, §5, §6
# [2] = tested on: white mice, rats, rabbits and dogs; experiment: Toxicity, general findings in white mice, rats, rabbits and dogs; assay type: in vivo; details: for Death of animals: single i.v. dose exceeding the therapeutic dose by 4-5 times
# Description: as §4
# thrombin time = experiment: Thrombin time in dogs with experimental thrombosis; assay type: in vivo, dog; details: for Thrombin time, initial parameter: before administration (baseline)
# Description: (§7) The prolonged effect of the fibrinolysin derivative according to the present invention has been studied in experiments on dogs in comparison with the effect of native fibrinolysin.
# Variation of thrombin time (in seconds) in dogs with expe-
# rimental thrombosis after administration of the fibrinolysin
# derivative according to the present invention and native
# Mice = experiment: Toxicity upon intravenous injection in mice; assay type: in vivo, white mice; details: i.v.
# Description: as §4, §5, §6
# [3] = tested on: thromboses of a rabbit's jugular vein; experiment: Thrombolytic activity on model of thrombosis of rabbit's jugular vein (lysis of thrombus); assay type: in vivo
# Description: as §1, §2, §3
# [4] = tested on: euglobulin fraction of dog's plasma; experiment: Lysis duration of the euglobulin fraction of dog's plasma with experimental thrombosis; assay type: in vivo; details: for Lysis duration of the euglobulin fraction, initial parameter: before administration (baseline)
# Description: as §7
# Variation of lysis duration (in minutes) of the euglobulin
# fraction of dog's plasma with experimental thrombosis upon
# administration of the fibrinolysin derivative according to
# the present invention and native fibrinolysin
# blood coagulation = experiment: Blood coagulation and bleeding during therapy of experimental thrombosis; assay type: in vivo, rabbit; details: for Bleeding / Changes in the third phase of blood coagulation: during treatment
# Description: as §1, §2, §3
# Dogs = experiment: Toxicity upon intravenous injection in dogs; assay type: in vivo; details: i.v.
# Description: as §4, §5, §6
# [5] = tested on: thromboses of a dog's femoral vein or artery; experiment: Thrombolytic activity on model of thrombosis of dog's femoral vein (lysis of thrombus); assay type: in vivo; details: dogs
# Description: as §1, §2, §3
# [6] = Fibrinolytic activity of the preparation; assay type: biochemical; details: for Specific (fibrinolytic) activity: lyophilized preparation; for Total activity relative to the initial value: of the initial value
molecule,measurement,setting,value
B1,Solubility in 0.9% isotonic solution of sodium chloride,[1],readily soluble
same,Solubility in 95% ethanol,[1],substantially insoluble
same,Solubility in chloroform,[1],substantially insoluble
same,Solubility in ether,[1],substantially insoluble
same,Hygroscopicity,[1],hygroscopic
same,Solubility in water,[1],readily soluble
same,Normalization of changes in the blood clotting system,experimental thrombosis; after administration,on the second day
same,Duration of the fibrinolytic effect,"experimental thrombosis; after administration, listed as fibrinolysin derivative according to the present invention",up to two days after administration; also recorded: observed also on the second day
same,Minimal effective (therapeutical) dose,experimental thrombosis,400 units/kg
same,Prolongation of the effect as compared to native fibrinolysin,experimental thrombosis; vs native fibrinolysin,2-3 times
same,LD50,Rats,4586 un./kg
same,"Toxicity test result (dead/survived, not defined)",Rats; 2000 un/kg,0/6
same,"Toxicity test result (dead/survived, not defined)",Rats; 2500 un/kg,0/6
same,"Toxicity test result (dead/survived, not defined)",Rats; 3750 un/kg,2/4
same,"Toxicity test result (dead/survived, not defined)",Rats; 5000 un/kg,3/3
same,"Toxicity test result (dead/survived, not defined)",Rats; 6250 un/kg,6/0
same,LD50,Rabbits,1834 un./kg
same,"Toxicity test result (dead/survived, not defined)",Rabbits; 500 un/kg,0/6
same,"Toxicity test result (dead/survived, not defined)",Rabbits; 1500 un/kg,2/4
same,"Toxicity test result (dead/survived, not defined)",Rabbits; 2000 un/kg,2/4
same,"Toxicity test result (dead/survived, not defined)",Rabbits; 2500 un/kg,6/0
same,Toxicity,"[2]; compared with native fibrinolysin / overall statement, listed as fibrinolysin derivative according to the present invention",low toxicity
same,Effect on the vessels,[2]; in the test doses,no injuring effect on the vessels
same,Macro- and microscopic changes in the inner organs,[2]; in the test doses,no macro- and microscopic changes in the inner organs
same,Effect on the central nervous system and blood pressure,[2]; in therapeutical doses,no effect on the central nervous system and blood pressure
same,Death of animals,[2]; listed as fibrinolysin derivative according to the present invention,does not result in death of animals
same,Death of animals,[2]; listed as fibrinolysin derivative of the present invention,does not result in their death
same,Thrombin time,thrombin time; after 2 hours,90 s
same,Thrombin time,thrombin time; after 1 day,92 s
same,Thrombin time,thrombin time; after 2 days,210 s
same,"Thrombin time, initial parameter",thrombin time,35 s
same,LD50,Mice,5000 un./kg
same,"Toxicity test result (dead/survived, not defined)",Mice; 2000 un/kg,0/6
same,"Toxicity test result (dead/survived, not defined)",Mice; 2500 un/kg,0/6
same,"Toxicity test result (dead/survived, not defined)",Mice; 5000 un/kg,2/4
same,"Toxicity test result (dead/survived, not defined)",Mice; 6250 un/kg,6/0
same,Efficiency of the therapy (lysis of thrombus),"[3]; rabbits, 400 units/kg i.v., n=7",full lysis
same,Efficiency of the therapy (lysis of thrombus),"[3]; rabbits, 600 units/kg i.v.",full lysis
same,Lysis duration of the euglobulin fraction,[4]; after 2 hours,90 min
same,Lysis duration of the euglobulin fraction,[4]; after 1 day,1 min
same,Lysis duration of the euglobulin fraction,[4]; after 2 days,10 min
same,"Lysis duration of the euglobulin fraction, initial parameter",[4],70 min
same,Bleeding,blood coagulation,not accompanied by bleeding
same,Changes in the third phase of blood coagulation,blood coagulation,no sharp changes in the third phase of blood coagulation
same,"Toxicity test result (dead/survived, not defined)",Dogs; 500 un/kg,0/3
same,"Toxicity test result (dead/survived, not defined)",Dogs; 1000 un/kg,0/3
same,"Toxicity test result (dead/survived, not defined)",Dogs; 1500 un/kg,0/1
same,Efficiency of the therapy (lysis of thrombus),"[5]; femoral vein, 600 units/kg i.v., n=3",full lysis
B2,Solubility in 0.9% isotonic solution of sodium chloride,[1],readily soluble
same,Solubility in 95% ethanol,[1],substantially insoluble
same,Solubility in chloroform,[1],substantially insoluble
same,Solubility in ether,[1],substantially insoluble
same,Hygroscopicity,[1],hygroscopic
same,Solubility in water,[1],readily soluble
same,Specific (fibrinolytic) activity,[6],24 units/mg
same,Total activity relative to the initial value,[6],30%
B3,Lysis of a thrombus at the minimal therapeutic dose,experimental thrombosis; 800 units/kg of the bodyweight,does not always cause the lysis of a thrombus
same,Duration of the fibrinolytic effect,experimental thrombosis; after administration,limited to one day
same,Minimal effective (therapeutical) dose,experimental thrombosis,800 units/kg
same,Thrombin time,thrombin time; after 2 hours,195 s
same,Thrombin time,thrombin time; after 1 day,95 s
same,Thrombin time,thrombin time; after 2 days,97 s
same,"Thrombin time, initial parameter",thrombin time,22 s
same,Efficiency of the therapy (lysis of thrombus),"[3]; rabbits, 600 units/kg i.v.",no lysis
same,Efficiency of the therapy (lysis of thrombus),"[3]; rabbits, 800 units/kg i.v. (Table 1: 2 animals full lysis, 1 animal no lysis)",full lysis; also recorded: no lysis
same,Efficiency of the therapy (lysis of thrombus),"[3]; rabbits, 800 units/kg i.v. (Table 1: 2 animals full lysis, 1 animal no lysis), listed as fibrinolysin",no thrombolytic effect in all cases
same,Efficiency of the therapy (lysis of thrombus),"[3]; rabbits, 1,200 units/kg i.v.",full lysis
same,Efficiency of the therapy (lysis of thrombus),"[3]; rabbits, 2,000 units/kg i.v.",full lysis
same,Death of animals,"[3]; rabbits, 4,000 units/kg i.v.",death of animals
same,Efficiency of the therapy (lysis of thrombus),"[3]; rabbits, 4,000 units/kg i.v.",full lysis
same,Lysis duration of the euglobulin fraction,[4]; after 2 hours,3 min
same,Lysis duration of the euglobulin fraction,[4]; after 1 day,105 min
same,Lysis duration of the euglobulin fraction,[4]; after 2 days,90 min
same,"Lysis duration of the euglobulin fraction, initial parameter",[4],38 min
same,Bleeding,blood coagulation,bleeding
same,Changes in the third phase of blood coagulation,blood coagulation,pathological changes in the third phase of blood coagulation
same,Content of fibrinogen,blood coagulation; first hours after administration,down to zero
same,Efficiency of the therapy (lysis of thrombus),"[5]; femoral vein, 800 units/kg i.v., n=1",no lysis
same,Efficiency of the therapy (lysis of thrombus),"[5]; femoral vein, 1,600 units/kg i.v., n=1",full lysis
B4,Solubility in 0.9% isotonic solution of sodium chloride,[1],soluble
same,Solubility in 95% ethanol,[1],substantially insoluble
same,Solubility in chloroform,[1],substantially insoluble
same,Solubility in ether,[1],substantially insoluble
same,Hygroscopicity,[1],hygroscopic
same,Solubility in water,[1],soluble
same,Specific (fibrinolytic) activity,[6],21.2 units/mg
same,Total activity relative to the initial value,[6],31.0%
same,Total activity,[6]; whole batch,48200 units
